Here are results for eight substances from PMC6309729.

pKd, pKi: −log10 of the molar value. Read-outs that look alike come from different tables or passages of the source.

One test deals with FtsY (Escherichia coli) (UniProt P10121). The following applies: cited from earlier work.
The target in test [1] is cpSRP54 (chloroplast SRP54), wildtype (Arabidopsis thaliana) (UniProt P37107). The test is described as follows: GTPase inhibition assay.
For test [2] the target is unchanged. The test is described as follows: GTPase inhibition assay. The source holds these as a separate data set.
Test [3] has the same target.
In test [4] the target is cpFtsY(A168W) labeled for FRET. The test is described as follows: FRET or BRET.
The target in the next test is cpFtsY(321C)-DACM (UniProt O80842). The test is described as follows: FRET or BRET. Background: In BRET a luciferase serves as donor, and the signal depends on an acceptor being close.
For test [5], the target named is cpFtsY (chloroplast SRP receptor), wildtype (UniProt O80842).
Test [6] has the same target. The test is described as follows: GTPase inhibition assay.
The target is the same in test [7]. The test is described as follows: GTPase inhibition assay. This is another data set of the same source.

Chain of cpSRP54 (chloroplast SRP54), wildtype (Arabidopsis thaliana) (P37107 76-564): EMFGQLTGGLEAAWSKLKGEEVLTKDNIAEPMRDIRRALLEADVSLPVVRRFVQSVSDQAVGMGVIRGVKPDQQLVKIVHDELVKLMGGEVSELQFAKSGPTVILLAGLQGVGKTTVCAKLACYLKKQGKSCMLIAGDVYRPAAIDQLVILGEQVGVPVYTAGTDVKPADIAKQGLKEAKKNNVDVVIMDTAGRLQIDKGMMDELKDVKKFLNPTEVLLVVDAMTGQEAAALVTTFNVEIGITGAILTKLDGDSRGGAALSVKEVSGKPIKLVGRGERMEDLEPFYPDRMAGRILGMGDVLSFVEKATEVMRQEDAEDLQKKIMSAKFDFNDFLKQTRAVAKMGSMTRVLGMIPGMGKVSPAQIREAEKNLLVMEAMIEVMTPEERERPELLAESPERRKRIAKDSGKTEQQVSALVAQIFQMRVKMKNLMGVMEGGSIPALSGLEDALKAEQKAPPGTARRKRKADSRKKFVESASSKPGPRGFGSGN
Chain of FtsY (Escherichia coli) (P10121 2-497): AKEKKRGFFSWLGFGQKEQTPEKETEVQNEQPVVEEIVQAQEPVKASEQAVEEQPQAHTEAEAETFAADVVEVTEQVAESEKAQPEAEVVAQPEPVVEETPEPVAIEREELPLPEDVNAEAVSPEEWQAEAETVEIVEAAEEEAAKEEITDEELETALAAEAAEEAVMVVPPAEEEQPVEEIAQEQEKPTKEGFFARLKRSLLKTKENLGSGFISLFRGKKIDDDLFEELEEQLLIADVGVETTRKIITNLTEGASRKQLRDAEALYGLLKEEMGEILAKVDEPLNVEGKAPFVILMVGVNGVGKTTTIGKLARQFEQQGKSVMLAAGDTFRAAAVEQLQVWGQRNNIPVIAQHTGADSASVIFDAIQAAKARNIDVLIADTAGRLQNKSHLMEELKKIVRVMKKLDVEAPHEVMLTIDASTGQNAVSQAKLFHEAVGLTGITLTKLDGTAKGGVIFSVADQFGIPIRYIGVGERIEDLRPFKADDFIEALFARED
Chain of Ffh (P0AGD7 whole entry): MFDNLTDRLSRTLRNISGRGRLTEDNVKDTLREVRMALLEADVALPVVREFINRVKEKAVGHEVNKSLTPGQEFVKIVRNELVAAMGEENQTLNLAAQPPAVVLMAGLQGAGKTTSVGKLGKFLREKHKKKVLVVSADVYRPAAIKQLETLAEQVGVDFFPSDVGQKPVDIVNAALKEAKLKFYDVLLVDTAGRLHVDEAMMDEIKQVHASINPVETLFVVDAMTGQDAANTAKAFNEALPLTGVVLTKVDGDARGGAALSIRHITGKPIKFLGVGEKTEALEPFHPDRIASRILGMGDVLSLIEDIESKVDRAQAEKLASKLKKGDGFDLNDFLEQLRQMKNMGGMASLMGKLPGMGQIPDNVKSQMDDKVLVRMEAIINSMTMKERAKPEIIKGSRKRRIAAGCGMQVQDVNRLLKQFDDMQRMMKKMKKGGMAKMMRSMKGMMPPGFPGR

On to Ffh (from UniProt P0AGD7), for which the pKd with FtsY (Escherichia coli) was 5.22.

In the case of cpFtsY(A168W) (natural protein), the pKi in test [1] was > 6.70; in test [2] it was 6.64.

On to cpFtsY(F165A) (natural protein), for which, in test [3], the kcat/Km of the reciprocally stimulated GTPase reaction is 633000 M⁻¹ s⁻¹.

Take cpFtsY(R166A) (natural protein): the kcat/Km of the reciprocally stimulated GTPase reaction in [3] turned out to be 14800 M⁻¹ s⁻¹. The pKi in test [2] was 5.49.

On to “cpSRP54(234C)-BODIPY-FL (from UniProt P37107 76-564) (natural protein)”, for which, in test [4], the pKd is 6.46. In the test with cpFtsY(321C)-DACM, this substance gave a pKd of 5.15 and a kon of 500000 M⁻¹ s⁻¹.

For cpSRP54(A142W) (natural protein), in [5], the Km of the reciprocally stimulated GTPase reaction is 0.24 µM and the kcat/Km of the reciprocally stimulated GTPase reaction was found to be 46700 M⁻¹ s⁻¹. Moreover, the pKi in [6] was > 6.70. Besides, the pKi in test [7] is 6.96.

Take cpSRP54(D137A) (natural protein): in test [5], the kcat/Km of the reciprocally stimulated GTPase reaction is 3170 M⁻¹ s⁻¹. For the same substance, the negative logarithm of the Ki (pKi) in test [7] was 5.70.

Consider cpSRP54(R140A) (natural protein), for which the kcat/Km of the reciprocally stimulated GTPase reaction in test [5] is 9000 M⁻¹ s⁻¹. This substance also gave a negative logarithm of the Ki (pKi) in test [7] of 6.29.

Usually pKd stands for the negative decadic logarithm of the Kd, by convention in mol/L. One may read the pKi as the Ki on a negative log10 scale, so that one unit is a factor of ten. The kon is a measure of how fast the partners come together. Read a low kon as slow association.
